Experimental data published in patent US20250262210A1 (TRUSTEES OF COLUMBIA UNIVERSITY IN THE CITY OF NEW YORK, published 2025).

How the values were obtained:
Test in all cases: IP/MS, LZTR1 wild type-FLAG, U87
[1] = biological target: T1, ELP1 (human, UniProt O95163 1-1332)
T1 sequence (looked up): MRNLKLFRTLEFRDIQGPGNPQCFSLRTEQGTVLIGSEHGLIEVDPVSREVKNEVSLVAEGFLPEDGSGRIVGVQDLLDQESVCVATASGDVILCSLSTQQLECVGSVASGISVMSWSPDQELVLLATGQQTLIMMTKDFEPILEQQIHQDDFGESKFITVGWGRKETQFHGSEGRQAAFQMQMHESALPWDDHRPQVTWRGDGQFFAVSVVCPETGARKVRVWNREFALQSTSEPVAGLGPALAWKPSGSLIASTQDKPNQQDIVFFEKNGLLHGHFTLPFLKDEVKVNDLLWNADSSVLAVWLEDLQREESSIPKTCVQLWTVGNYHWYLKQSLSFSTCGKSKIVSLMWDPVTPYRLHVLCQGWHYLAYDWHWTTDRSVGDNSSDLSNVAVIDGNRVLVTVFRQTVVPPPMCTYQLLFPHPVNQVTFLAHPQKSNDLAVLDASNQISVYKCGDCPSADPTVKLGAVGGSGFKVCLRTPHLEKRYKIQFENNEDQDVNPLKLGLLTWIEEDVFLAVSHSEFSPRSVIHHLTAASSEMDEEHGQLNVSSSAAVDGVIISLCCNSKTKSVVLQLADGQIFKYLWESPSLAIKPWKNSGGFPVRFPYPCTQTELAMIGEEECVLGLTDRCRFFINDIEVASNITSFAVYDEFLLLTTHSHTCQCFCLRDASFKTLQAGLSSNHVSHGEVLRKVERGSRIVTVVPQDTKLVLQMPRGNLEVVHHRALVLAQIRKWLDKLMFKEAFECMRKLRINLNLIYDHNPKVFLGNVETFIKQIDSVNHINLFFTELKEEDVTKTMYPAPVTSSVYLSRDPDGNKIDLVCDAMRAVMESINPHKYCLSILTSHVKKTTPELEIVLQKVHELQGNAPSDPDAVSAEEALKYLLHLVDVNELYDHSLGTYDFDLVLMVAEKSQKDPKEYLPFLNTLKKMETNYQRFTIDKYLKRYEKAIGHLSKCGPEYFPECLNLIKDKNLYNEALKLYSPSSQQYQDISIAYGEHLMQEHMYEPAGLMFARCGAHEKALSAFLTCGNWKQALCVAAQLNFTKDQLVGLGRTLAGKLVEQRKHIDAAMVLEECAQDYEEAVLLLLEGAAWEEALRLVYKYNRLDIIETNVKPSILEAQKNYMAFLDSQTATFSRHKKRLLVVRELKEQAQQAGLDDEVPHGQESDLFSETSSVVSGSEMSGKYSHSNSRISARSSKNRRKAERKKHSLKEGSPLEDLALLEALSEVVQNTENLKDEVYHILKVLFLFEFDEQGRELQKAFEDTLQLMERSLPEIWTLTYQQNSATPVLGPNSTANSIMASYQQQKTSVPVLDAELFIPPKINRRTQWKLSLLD
Procedure, shortened: (§1)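 Read-out: spectral counts from LC-MS/MS (Orbitrap Fusion) after MaxQuant identification. Variable modifications were Met oxidation, protein N-terminal acetylation and N/Q deamidation.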

[2] = biological target: T2, CC2D1A (human, UniProt Q6P1N0 1-951, limits assumed)
T2 sequence (looked up): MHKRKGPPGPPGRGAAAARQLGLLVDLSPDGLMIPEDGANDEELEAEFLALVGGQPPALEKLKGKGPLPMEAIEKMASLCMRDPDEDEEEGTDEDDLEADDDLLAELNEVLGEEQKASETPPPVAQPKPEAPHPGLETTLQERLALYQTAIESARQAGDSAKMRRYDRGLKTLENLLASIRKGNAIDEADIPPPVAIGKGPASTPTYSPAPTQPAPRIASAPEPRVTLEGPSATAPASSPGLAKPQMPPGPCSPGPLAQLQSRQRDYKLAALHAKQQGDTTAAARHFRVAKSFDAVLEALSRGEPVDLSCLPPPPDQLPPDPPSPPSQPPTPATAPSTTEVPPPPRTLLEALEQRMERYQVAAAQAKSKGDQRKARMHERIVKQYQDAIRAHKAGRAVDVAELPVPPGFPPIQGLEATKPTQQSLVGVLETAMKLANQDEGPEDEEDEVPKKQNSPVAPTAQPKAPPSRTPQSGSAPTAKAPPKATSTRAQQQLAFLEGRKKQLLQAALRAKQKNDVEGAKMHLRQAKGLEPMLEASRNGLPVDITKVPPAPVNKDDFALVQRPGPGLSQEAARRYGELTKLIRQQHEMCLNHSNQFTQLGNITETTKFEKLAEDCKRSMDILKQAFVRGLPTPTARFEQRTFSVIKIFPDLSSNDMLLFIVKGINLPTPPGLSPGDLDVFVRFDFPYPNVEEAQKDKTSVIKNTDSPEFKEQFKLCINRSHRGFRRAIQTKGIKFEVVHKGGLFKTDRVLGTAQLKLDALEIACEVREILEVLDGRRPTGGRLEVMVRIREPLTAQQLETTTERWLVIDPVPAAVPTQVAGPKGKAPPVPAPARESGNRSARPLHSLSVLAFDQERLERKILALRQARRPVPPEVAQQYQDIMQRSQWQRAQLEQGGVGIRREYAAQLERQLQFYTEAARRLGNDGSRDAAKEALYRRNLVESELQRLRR
Procedure, shortened: as §1

[3] = biological target: CDC42BPB (human, UniProt Q9Y5S2 1-1711)
Procedure, shortened: as §1

CDC42BPB, sequence (Q9Y5S2 whole entry): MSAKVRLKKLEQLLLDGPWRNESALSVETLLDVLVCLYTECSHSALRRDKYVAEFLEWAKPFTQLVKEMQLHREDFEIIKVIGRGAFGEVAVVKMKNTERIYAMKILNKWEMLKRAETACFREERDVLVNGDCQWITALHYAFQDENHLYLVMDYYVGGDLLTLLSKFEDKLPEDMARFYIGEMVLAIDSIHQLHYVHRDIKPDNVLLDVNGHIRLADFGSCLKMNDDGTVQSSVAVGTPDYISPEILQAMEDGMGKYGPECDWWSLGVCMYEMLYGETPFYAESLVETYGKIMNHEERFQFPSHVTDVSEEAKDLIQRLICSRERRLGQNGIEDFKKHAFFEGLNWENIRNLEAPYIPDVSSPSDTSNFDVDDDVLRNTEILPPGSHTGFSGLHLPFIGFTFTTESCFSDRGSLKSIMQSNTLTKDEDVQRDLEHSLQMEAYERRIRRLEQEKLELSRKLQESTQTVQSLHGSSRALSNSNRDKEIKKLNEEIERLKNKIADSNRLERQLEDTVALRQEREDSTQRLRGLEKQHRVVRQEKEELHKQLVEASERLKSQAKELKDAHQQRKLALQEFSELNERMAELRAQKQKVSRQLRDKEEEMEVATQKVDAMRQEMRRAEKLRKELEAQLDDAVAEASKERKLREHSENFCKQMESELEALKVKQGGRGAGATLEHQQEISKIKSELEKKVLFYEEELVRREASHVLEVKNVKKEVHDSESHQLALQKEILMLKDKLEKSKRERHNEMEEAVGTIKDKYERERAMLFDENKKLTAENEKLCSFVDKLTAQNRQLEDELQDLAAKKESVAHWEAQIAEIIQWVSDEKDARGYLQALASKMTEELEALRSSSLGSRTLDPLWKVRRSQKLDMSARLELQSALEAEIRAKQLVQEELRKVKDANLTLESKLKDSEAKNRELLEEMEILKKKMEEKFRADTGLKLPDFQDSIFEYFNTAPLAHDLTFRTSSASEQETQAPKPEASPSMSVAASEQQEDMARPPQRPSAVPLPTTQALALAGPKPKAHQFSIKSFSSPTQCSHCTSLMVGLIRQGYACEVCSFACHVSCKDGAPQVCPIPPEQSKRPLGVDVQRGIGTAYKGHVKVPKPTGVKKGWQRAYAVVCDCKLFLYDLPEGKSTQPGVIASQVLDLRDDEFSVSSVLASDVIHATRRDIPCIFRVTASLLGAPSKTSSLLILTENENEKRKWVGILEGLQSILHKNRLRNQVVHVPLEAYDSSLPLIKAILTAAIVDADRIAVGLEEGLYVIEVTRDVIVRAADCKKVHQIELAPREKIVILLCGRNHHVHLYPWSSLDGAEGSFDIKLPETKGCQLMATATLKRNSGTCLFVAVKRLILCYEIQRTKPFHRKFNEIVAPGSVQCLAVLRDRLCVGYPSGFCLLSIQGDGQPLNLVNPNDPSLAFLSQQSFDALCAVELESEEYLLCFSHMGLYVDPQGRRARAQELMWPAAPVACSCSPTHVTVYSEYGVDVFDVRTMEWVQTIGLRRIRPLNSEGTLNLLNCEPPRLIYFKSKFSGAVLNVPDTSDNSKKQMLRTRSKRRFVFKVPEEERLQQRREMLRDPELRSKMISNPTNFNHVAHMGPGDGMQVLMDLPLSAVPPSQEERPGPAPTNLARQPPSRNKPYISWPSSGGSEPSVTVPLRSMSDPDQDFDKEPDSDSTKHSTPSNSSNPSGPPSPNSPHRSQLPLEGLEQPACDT

binding result [1]: binds
binding result [2]: binds
binding result [3]: binds
B1: LZTR1-FLAG (other, human, UniProt Q8N653 1-840, looked up)
chain: MAGPGSTGGQIGAAALAGGARSKVAPSVDFDHSCSDSVEYLTLNFGPFETVHRWRRLPPCDEFVGARRSKHTVVAYKDAIYVFGGDNGKTMLNDLLRFDVKDCSWCRAFTTGTPPAPRYHHSAVVYGSSMFVFGGYTGDIYSNSNLKNKNDLFEYKFATGQWTEWKIEGRLPVARSAHGATVYSDKLWIFAGYDGNARLNDMWTIGLQDRELTCWEEVAQSGEIPPSCCNFPVAVCRDKMFVFSGQSGAKITNNLFQFEFKDKTWTRIPTEHLLRGSPPPPQRRYGHTMVAFDRHLYVFGGAADNTLPNELHCYDVDFQTWEVVQPSSDSEVGGAEVPERACASEEVPTLTYEERVGFKKSRDVFGLDFGTTSAKQPTQPASELPSGRLFHAAAVISDAMYIFGGTVDNNIRSGEMYRFQFSCYPKCTLHEDYGRLWESRQFCDVEFVLGEKEECVQGHVAIVTARSRWLRRKITQARERLAQKLEQEAAPVPREAPGVAAGGARPPLLHVAIREAEARPFEVLMQFLYTDKIKYPRKGHVEDVLLIMDVYKLALSFQLCRLEQLCRQYIEASVDLQNVLVVCESAARLQLSQLKEHCLNFVVKESHFNQVIMMKEFERLSSPLIVEIVRRKQQPPPRTPLDQPVDIGTSLIQDMKAYLEGAGAEFCDITLLLDGHPRPAHKAILAARSSYFEAMFRSFMPEDGQVNISIGEMVPSRQAFESMLRYIYYGEVNMPPEDSLYLFAAPYYYGFYNNRLQAYCKQNLEMNVTVQNVLQILEAADKTQALDMKRHCLHIIVHQFTKVSKLPTLRSLSQQLLLDIIDSLASHISDKQCAELGADI
notes: Expressed in HEK 293T, HeLa or U87 cells; used as cell lysate; also called LZTR1 wild type-FLAG; LZTR1 WT; not shown: FLAG tag at the C-terminus
